Target: Purified human ribosomes from HEK293 cells (human)

cGAMP synthesis by cGAS (thin-layer chromatography) with saturating DNA, fold stimulation by pre-incubation with purified ribosomes, cGAS at 150–300 nM: 8 fold
Substance: purified, recombinant human cGAS (from UniProt Q8N884 1-522) (natural protein)
